# PMC5486051, “BrWRKY65, a WRKY Transcription Factor, Is Involved in Regulating Three Leaf Senescence-Associated Genes in Chinese Flowering Cabbage”
# Residue numbers refer to the chain shown, from its start.
# B1: BrDIN1 promoter W-box probe (dsDNA)
# DNA 1: CGAGAGACCTGATTAAGAACATCTGACTTCAATTAAACCAATCACACTAC
# DNA 2: GTAGTGTGATTGGTTTAATTGAAGTCAGATGTTCTTAATCAGGTCTCTCG
# B2: BrDIN1 mutant W-box competitor (dsDNA)
# DNA 1: B1 DNA 1 with C23A, T24A, G25A, C27A, T28A
# DNA 2: B1 DNA 2 with A23T, G24T, C26T, A27T, G28T
# B3: BrSGR1 promoter W-box probe (dsDNA)
# DNA 1: TTTCACTCGTATCGTAAGATTGTTGACTCCAACACGCAAACAACAAAAAC
# DNA 2: GTTTTTGTTGTTTGCGTGTTGGAGTCAACAATCTTACGATACGAGTGAAA
# B4: BrSGR1 mutant W-box competitor (dsDNA)
# DNA 1: B3 DNA 1 with T23A, T24A, G25A, C27A, T28A
# DNA 2: B3 DNA 2 with A23T, G24T, C26T, A27T, A28T
# B5: BrNYC1 promoter W-box probe (dsDNA)
# DNA 1: GATCGCCAGATTGCAGTGACGGTTGACTTGAATAAAGAAAAATGAAAAAA
# DNA 2: TTTTTTCATTTTTCTTTATTCAAGTCAACCGTCACTGCAATCTGGCGATC
# B6: BrNYC1 mutant W-box competitor (dsDNA)
# DNA 1: B5 DNA 1 with T23A, T24A, G25A, C27A, T28A
# DNA 2: B5 DNA 2 with A23T, G24T, C26T, A27T, A28T
# Legend:
# GST-BrWRKY65 [1] = target: T1, GST-BrWRKY65 (Brassica rapa var. parachinensis …, UniProt A0ACM8RC22 1-261); assay: EMSA; shift abolished dose-dependently by unlabeled self competitor (100x, 1000x); LightShift Chemiluminescent EMSA Kit; native polyacrylamide gel (Figure 5 legend; Methods says SDS-PAGE); buffer, salt, pH and temperature not stated; details: protein: recombinant; tags: GST (N-terminal, pGEX-4T-1); label: 5' biotin
# T1 sequence (A0ACM8RC22 entry or part of it): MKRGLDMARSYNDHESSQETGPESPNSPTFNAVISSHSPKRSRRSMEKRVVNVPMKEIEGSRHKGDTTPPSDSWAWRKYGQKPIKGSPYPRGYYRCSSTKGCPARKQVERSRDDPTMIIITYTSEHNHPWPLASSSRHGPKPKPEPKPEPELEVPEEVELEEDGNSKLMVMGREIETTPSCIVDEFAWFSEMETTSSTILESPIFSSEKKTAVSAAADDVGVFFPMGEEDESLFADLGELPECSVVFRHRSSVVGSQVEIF
# GST-BrWRKY65 [2] = target: T1, GST-BrWRKY65; assay: competition; unlabeled mutant, 100-1000x excess over N3; LightShift Chemiluminescent EMSA Kit; native polyacrylamide gel (Figure 5 legend; Methods says SDS-PAGE); buffer, salt, pH and temperature not stated; details: protein: recombinant; tags: GST (N-terminal, pGEX-4T-1); label: unlabeled
# GST-BrWRKY65 [3] = target: T1, GST-BrWRKY65; assay: competition; unlabeled mutant, 100-1000x excess over N2; LightShift Chemiluminescent EMSA Kit; native polyacrylamide gel (Figure 5 legend; Methods says SDS-PAGE); buffer, salt, pH and temperature not stated; details: protein: recombinant; tags: GST (N-terminal, pGEX-4T-1); label: unlabeled
# GST-BrWRKY65 [4] = target: T1, GST-BrWRKY65; assay: competition; unlabeled mutant, 100-1000x excess over N1; LightShift Chemiluminescent EMSA Kit; native polyacrylamide gel (Figure 5 legend; Methods says SDS-PAGE); buffer, salt, pH and temperature not stated; details: protein: recombinant; tags: GST (N-terminal, pGEX-4T-1); label: unlabeled
Binder,binding result (GST-BrWRKY65 [1]),further results
B1,binds,
B2,,binding result (GST-BrWRKY65 [2]): no binding
B3,binds,
B4,,binding result (GST-BrWRKY65 [3]): no binding
B5,binds,
B6,,binding result (GST-BrWRKY65 [4]): no binding
